Data published in the supplement of paper PMC12042874.
± gives the uncertainty stated by the source.

Experiment: amyloid nucleation score (Sup35N fusion, yeast selection) (log enrichment); library NNK1; higher = more nucleation; inactive = no reads after selection
Method in brief: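 The nucleation score is a DiMSum log enrichment of output over input reads, centred on the mode score of non-aggregating sequences. Sequences under 100 input reads were excluded, and reads came from Illumina sequencing of plasmid inserts. Psi-negative yeast expressing Sup35N fused to peptides of 20 random codons were induced with 100 μM copper sulfate for 24 hours and grown 7 days at 30°C on medium lacking adenine and uracil. Random libraries had three technical output replicates.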

Row | Substance | amyloid nucleation score
1 | NTTAWPVYFYLWFRKTGWPL | -0.371 ± 0.78
2 | NSLKCVRSIVKRYSACHRV | 0.387 ± 0.5
3 | LWSFIGTGLITNMCISREFK | 0.743 ± 0.16
4 | NINPHLLTISFHWLRPQLAP | -0.745 ± 1.7
5 | VLSRLCLYVSVMSRDNKYGS | 2.38 ± 0.46
6 | AMRGYCRAFQIWVWICGLSL | 0.027 ± 0.86
7 | GSRRDRISLRSQRVCILEKG | 1.95 ± 0.6
8 | MSLYTDNWGNKGRTSLNYSS | 0.455 ± 0.51
9 | ENVYGWVG | 1.09 ± 0.15
10 | RYISYAKCRNYNGLIMYYLY | 2.52 ± 0.11
11 | RLTFVYHRMERVKKDYCS | inactive
12 | ALLHVNLIVGNYTSGG | 3.28 ± 0.13
13 | FHASATRTFIVFCIC | 0.556 ± 0.38
14 | IYLLLCLENRVDMLE | inactive
15 | GSMNVECDRDRDRYNVCHYR | -0.569 ± 0.39
16 | CSDFITLSMFV | 0.99 ± 0.66
17 | PWYKSLSRPSGGKTVLLRNM | -0.113 ± 0.43
18 | RVPCCGSYKGVFYEFTFSRG | 0.957 ± 0.49
19 | SEWDFGDCENFKVSYLVVTQ | -0.408 ± 0.4
20 | CLISP | inactive
21 | SYCFFYDDMRTWWFYS | 4.4 ± 0.11
22 | VCKITDLAARCHSREFWESR | 0.253 ± 0.25
23 | SLATEYCSPFNINRFHLVSI | 1.78 ± 0.29
24 | FCVWIGKEGD | 0.442 ± 0.51
25 | SFSVVCRLKRAFGLAVIVRR | 0.184 ± 1.2

Row | Substance | amyloid nucleation score
26 | RDLTKSDLMSVNAYMVIYRW | 0.382 ± 0.31
27 | TYRVVFVAGIHQFNFVPLVR | 0.009 ± 1.1
28 | ICISSPVMMKAIPLPFEFSR | -0.167 ± 0.43
29 | VRACSCMDCDTVYRNVLSMG | -1.79 ± 2.4
30 | QRMACWYLDKLESLSKLACM | 0.612 ± 0.82
31 | ERKRTFY | 0.536 ± 0.41
32 | AIRSFRARIGN | 0.177 ± 1.2
33 | GRKRYKRATHH | -0.593 ± 1.5
34 | RFSITSGNYFNN | -0.971 ± 0.79
35 | WRCRGCMWAHRAWGNSSCV | -0.655 ± 0.98
36 | PHPVVLASLSIDWVPRCSES | -0.179 ± 1
37 | HSEIHVALYCASVML | 3.38 ± 0.097
38 | TCYGQAVFLTDCSGRWDIYE | 3.34 ± 0.16
39 | LFFQPLVLFKKRLEYCFRLL | 0.2 ± 0.6
40 | RAISVLPIMSVRAH | 0.085 ± 0.25
41 | LYCTLLKDSVSSLAVTYMSY | -0.071 ± 0.28
42 | TVIFMCLTAFGTSGNHIGSR | -0.776 ± 0.81
43 | PHMMELSVDTKGNVLKVGSH | 0.055 ± 0.52
44 | GGRNWFYRALR | 0.362 ± 0.63
45 | YCIYVGFDLMCLSVWNGHRS | -1.39 ± 0.66
46 | DTYKSPKHYRRL | 0.608 ± 0.64
47 | ICIASFCKKNVTCGLIWLIV | 1.51 ± 0.7
48 | KYASVGASFVWC | 0.102 ± 0.34
49 | TKTTVHCFSSMIQYCAAPTL | -0.158 ± 0.73
50 | FSRSWGDCIGERCGVV | 0.307 ± 0.38

Row | Substance | amyloid nucleation score
51 | VGCFLIKSGEQ | -0.385 ± 0.36
52 | IMFLRLFKGLCMKYSVRRDC | -0.512 ± 0.4
53 | FTALPSTVVIVQHTLHLDSF | 6.48 ± 0.066
54 | KSVDFTYDEGRSTAVIVYHF | 0.223 ± 0.29
55 | NSCRCYFLLGELDLNAFNSV | 1.74 ± 0.55
56 | FVLGWQI | 1.63 ± 0.56
57 | SGNSSFIVILNKRTFRLCRY | 1.41 ± 0.18
58 | NVYDMFIKFGVGVASSVSAC | -1.48 ± 1.9
59 | NHFFCGLGNYLSAVFIVIRK | -0.159 ± 1.4
60 | NCECVFIPMKEPGFYR | -0.357 ± 0.63
61 | FNKYYMFEST | -0.038 ± 0.33
62 | VHATLLNHA | 0.898 ± 0.64
63 | FVSRGLYGVLGTVSFLL | -2.07 ± 1.6
64 | FINVAFGCVYVRTNCLRMEG | 7.116 ± 0.059
65 | KLAIYFILAACSRNVVED | 0.768 ± 0.36
66 | TGFKI | -0.973 ± 0.97
67 | VGWFSNESWYLAVNDYGPA | 0.335 ± 0.3
68 | RMPRCKVFSVFSLLHAQY | 1.35 ± 0.9
69 | VYNAPGCVNRSDLVV | -0.745 ± 2.4
70 | GVLSICGML | -0.401 ± 0.31
71 | LTHVIGIPRQPCEPLVHLYG | -0.745 ± 2.4
72 | CFLIVHLNSRSDTCHEGSEC | -0.081 ± 0.54
73 | IYCVGDFVP | -0.026 ± 0.35
74 | FVINSTIRKVFFGFPDWCMC | -0.135 ± 0.3
75 | DSKLLSPDFRGRLIYRIFDD | -0.101 ± 0.46

Row | Substance | amyloid nucleation score
76 | LCSMTKTNVVRSECRVLTRR | 1.86 ± 0.65
77 | MVIPFFLSSLLSL | -0.835 ± 0.7
78 | RSSMYKYV | 0.523 ± 0.26
79 | YVVIAEPGYSRDMISLMERC | -1.16 ± 1.3
80 | FNFRSS | -0.618 ± 0.72
81 | FIHSRE | 0.366 ± 0.31
82 | PREVVAQKHCSLLQFDLLYS | -0.556 ± 0.48
83 | FAKVESLLWAGICTGRDEVM | -0.318 ± 0.46
84 | GGIYANYNFGYLARTESGLG | 1.04 ± 0.7
85 | FHIRWE | inactive
86 | ELFSAIPATIHCI | -0.057 ± 1.1
87 | LGMWRCKPRTTLAWSYLDPV | 0.179 ± 0.71
88 | NGRCKYLRQNIFSVLLIMRR | 0.324 ± 1
89 | GEKYNIFNFGFVLCSSLVLF | 8.116 ± 0.049
90 | ETFNWLSCIVRRSQKYAEET | -0.242 ± 1.2
91 | MTRVNLKDKHNVRILSFN | inactive
92 | IIMRTMHHAKRLSGLKP | 0.996 ± 0.44
93 | HKRLVGSYWFIFYSVTRYQE | -0.685 ± 1.7
94 | IFEIAESDLVYDHFSHYFKR | -0.033 ± 0.67
95 | KSQKG | 0.008 ± 0.36
96 | HRTFA | 0.465 ± 0.35
97 | TGYRSTYLNEVTPIRIMPHR | 0.905 ± 0.4
98 | YTTVVQF | 0.064 ± 0.23
99 | CYCLNAGVSMADHSVPPRVF | 0.912 ± 0.71
100 | FPDLYVWRCWKSQGHSWHGV | 0.573 ± 0.52

Row | Substance | amyloid nucleation score
101 | DRRRNCYFIRLWQGLGYIS | inactive
102 | TGLCDRLRSLEGAAAVR | 0.514 ± 0.49
103 | YDHCEGCWMSNRMWELGWKG | 0.048 ± 0.33
104 | LSYDSYSYIGLGGSLEIFWA | 0.182 ± 0.71
105 | SRVSTFGWIIRSEYYFFWAW | 0.666 ± 0.32
106 | DYAFKFCFQLVDKAYRSLSY | -0.413 ± 0.27
107 | FQYEWNLVIW | -0.074 ± 0.4
108 | DSTSDMLHLIIRTMISLISR | -0.257 ± 0.35
109 | RKPVVGSFIFTTFCKSYVDV | 2.9 ± 0.1
110 | YYGYVLFQGFSM | 1.82 ± 0.19
111 | LICSSYTNLALILHLWSKRF | 0.209 ± 0.26
112 | KVCTHYSTHRWLSSQPSKVV | -0.696 ± 1.9
113 | YWNRRYIGTPLNM | -1.73 ± 2.7
114 | FSSYPLGFRNRRDTVDMTIV | 0.018 ± 0.38
115 | SFNNMANMAYYRVRGVLVL | -0.438 ± 0.6
116 | NIGVCQIFLDTGMGISVFLN | 6.06 ± 0.08
117 | VNWVLIERWVVS | -1.13 ± 0.85
118 | FCVSTRRWGRAEYKRMDLLW | 0.077 ± 1
119 | YILKGNYLYRRVQLDLRTRR | -0.244 ± 0.28
120 | GVHRWVRSARLEAVHFGAGW | 1.45 ± 0.84
121 | ITKNRPARNRLLRTGMYFLL | 0.004 ± 0.29
122 | TCEESEDDGGIMAVPDWM | -0.42 ± 0.57
123 | ICFRSFRHGNYGLMRG | 1.35 ± 0.9
124 | VKALGHLRPTWLEKGCNHA | 0.289 ± 0.25
125 | CVCMVRYGVRAHR | 0.469 ± 0.64

Row | Substance | amyloid nucleation score
126 | VYLYMPPIDLL | -0.021 ± 0.46
127 | ERYRFRGIKLHRGDSWRDIC | 1.14 ± 0.71
128 | LTTPSFYLAGCSSS | -0.059 ± 0.36
129 | CYHQFGV | inactive
130 | NFGVSSNLCGGIWIYW | 4.74 ± 0.074
131 | WMNGGQRSVWMCCMGRMHPW | 7.738 ± 0.054
132 | SVLFNAAFFKFQNRF | 0.5 ± 0.6
133 | SILTSNMGQSHVSMDVLVVW | inactive
134 | AGWYINYTGKRDDARLLY | 0.187 ± 0.86
135 | WLPMPSV | 0.411 ± 0.47
136 | PCYWQPPRRVAVATLSAAAL | -0.312 ± 0.49
137 | VGCADEMVPMEFMCWLGIIF | -0.909 ± 2.7
138 | KSVFIYLGMISLVG | 0.352 ± 0.88
139 | HGIFEGRITVILKGY | 4.05 ± 0.15
140 | FKVTFNRDVPNESSTALCSV | -1.01 ± 1.7
141 | VVKSEVNTVA | 1.27 ± 0.62
142 | FQAQWNLSTCPNAFCLFLIR | 5.82 ± 0.059
143 | IVRVLCSLLIQFKVNAY | inactive
144 | MYCFLAKDLRVTEKFWRRGS | -0.448 ± 0.64
145 | VASFRMG | 1.37 ± 0.14
146 | IYFHLGGCI | -0.376 ± 0.42
147 | VGIILRLVQYSDEYYSCYAG | -2.62 ± 2.4
148 | VLILVDGSKMAPTALSCYSH | 1.34 ± 0.49
149 | YWRNKGVVCGLCYDIVR | -0.019 ± 0.97
150 | ASSLDLFNWASVWFFNYIGA | -0.887 ± 0.86

Row | Substance | amyloid nucleation score
151 | GSLLICEWLRFSRGRGVRSY | 1.11 ± 0.79
152 | AGWKTRHQGRVIVLGFWEGW | 0.059 ± 0.41
153 | WSATSATMLQSLPVQEEHVD | -0.38 ± 0.83
154 | YGHLDPFTKLWSLWGIIMNW | inactive
155 | TSTLVMTNKMVLDSVE | -0.543 ± 0.25
156 | SYTFSVYLVNWDGF | 2.43 ± 0.26
157 | GCFMLSSGLGISEPGSFWWG | 0.224 ± 0.53
158 | YVWDFRKLLYPAGWMSESVR | -0.346 ± 1
159 | YKSNKWSPSQKRKG | -1.37 ± 2.7
160 | GSCLISRT | 1.02 ± 0.5
161 | CKMWTE | 0.405 ± 0.75
162 | FTSRYLDF | 0.382 ± 1.2
163 | PSYLCYVIPPPCINLVPMYP | -0.177 ± 0.23
164 | NFDNYVLLPLALTC | inactive
165 | ATMCVTLIWCYSSKQRMYKK | 1.08 ± 0.15
166 | HSHRYNILQASWKA | 0.17 ± 0.38
167 | FGLIATTETRAVSKMNVFDN | 1.56 ± 0.49
168 | QVFGFYTMEKVYHVGGIASV | -0.296 ± 0.3
169 | YSTSSEVEVDWLSVSKFVSI | 0.146 ± 0.27
170 | MCKYVMRVLHIVAG | 0.699 ± 0.42
171 | EGRYTRDFKCRFSSERHSPS | 0.014 ± 0.47
172 | ACELGFLPKHRHRGLVFVEG | -0.725 ± 0.8
